Reference: article doi:10.1101/2020.06.28.176677 (bioRxiv, 2020)

B1: recombinant human GCDH, unmodified (hGCDH-6xHIS) (enzyme, UniProt Q92947 45-438, looked up)
chain: RPEFDWQDPLVLEEQLTTDEILIRDTFRTYCQERLMPRILLANRNEVFHREIISEMGELGVLGPTIKGYGCAGVSSVAYGLLARELERVDSGYRSAMSVQSSLVMHPIYAYGSEEQRQKYLPQLAKGELLGCFGLTEPNSGSDPSSMETRAHYNSSNKSYTLNGTKTWITNSPMADLFVVWARCEDGCIRGFLLEKGMRGLSAPRIQGKFSLRASATGMIIMDGVEVPEENVLPGASSLGGPFGCLNNARYGIAWGVLGASEFCLHTARQYALDRMQFGVPLARNQLIQKKLADMLTEITLGLHACLQLGRLKDQDKAAPEMVSLLKRNNCGKALDIARQARDMLGGNGISDEYHVIRHAMNLEAVNTYEGTHDIHALILGRAITGIQAFTASK
B2: chemically succinylated recombinant human GCDH (succinyl-GCDH) (enzyme, UniProt Q92947 45-438, looked up)
chain: RPEFDWQDPLVLEEQLTTDEILIRDTFRTYCQERLMPRILLANRNEVFHREIISEMGELGVLGPTIKGYGCAGVSSVAYGLLARELERVDSGYRSAMSVQSSLVMHPIYAYGSEEQRQKYLPQLAKGELLGCFGLTEPNSGSDPSSMETRAHYNSSNKSYTLNGTKTWITNSPMADLFVVWARCEDGCIRGFLLEKGMRGLSAPRIQGKFSLRASATGMIIMDGVEVPEENVLPGASSLGGPFGCLNNARYGIAWGVLGASEFCLHTARQYALDRMQFGVPLARNQLIQKKLADMLTEITLGLHACLQLGRLKDQDKAAPEMVSLLKRNNCGKALDIARQARDMLGGNGISDEYHVIRHAMNLEAVNTYEGTHDIHALILGRAITGIQAFTASK
modifications: succinyl-lysine, 11 sites found by LC-MS/MS (sites shown in Supporting Figure 2G, not given)
B3: glutaryl-CoA dehydrogenase (GCDH), mouse liver mitochondria (enzyme, mouse (endogenous in liver mitochondria), UniProt Q60759 45-438, looked up)
chain: RPVFDWKDPLILEEQLTADEKLIRDTFRNYCQERLMSRILLANRNEVFHRDIVYEMGELGVLGPTIKGYGCAGVSSVAYGLLTRELERVDSGYRSMMSVQSSLVMHPIYTYGSEEQRQKYLPGLAKGELLGCFGLTEPNHGSDPGGMETRARHNPSNQSYTLSGTKTWITNSPVADLFIVWARCEDNCIRGFILEKGMRGLSAPRIEGKFSLRASATGMIIMDSVEVPEENVLPNVSSLAGPFGCLNTARYGITWGVLGAAEFCLHTARQYALDRIQFGVPLARNQLVQKKLADMLTEITLGLHACLQLGRLKDQDKATPEMVSMLKRNNCGKALDIARQARDILGGNGISDEYHVIRHAMNLEAVNTYEGTHDIHALILGRAITGIQAFTVGK

Assays:
[1] = biological target: the molecule itself; experiment: SEC
[2] = biological target: the molecule itself; experiment: native gel or EMSA

Protein | stoichiometry N [1] | stoichiometry N [2]
B1 | 4 | 
B2 | 4 | 
B3 |  | 4
